# Test results reported in the RNAGym collection of RNA variant scans (doi:10.1073/pnas.2313332121).
# B1: TPR t1 (parent)
# chain: GACCAAUCUGCCCUCAGAGCUCGAGAACAUCUUCGGAUGCAGAGGAGGCAGGCUUCGGUGGCGCGAUAGCGCCAACGUCCUCAACCUCCAAUGCAUCCCACCACAUGAUGAUGCCUGAAGAGCCUUGGUUUUUUG
# Variants of: B1
# Test: polymerase ribozyme fitness, log enrichment relative to wild type (log ratio); higher = more active; in vitro selection for triplet polymerase activity
# Method in brief: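 Fitness is a logarithmic measure of how a genotype enriched relative to the wild type, with replicate averages weighted by inverse variance. The logarithm uses base 2, and enrichment came from Illumina sequencing of input and output libraries. Those libraries were PCR-built, transcribed mutants of each subunit of a heterodimeric triplet polymerase ribozyme, passed through one triplicate in vitro selection round that included frozen incubation at −7 °C, gel excision of extended constructs and streptavidin-bead capture. Genotypes were kept only if they had ≥10 input reads and ≥1 read per output.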
row,Variant,polymerase ribozyme fitness (log ratio)
1,A29U C53A U54C C76U C85A U131C,-3.17
2,A29U C53G U81A A121U U132A,-1.75
3,A29U C53U C79U A111C G120C,-3.26
4,A29U C62G,-2.45
5,A29U C62U A74C U81C C124A,-1.11
6,A29U C62U C89G,-3
7,A29U C70U,-2.15
8,A29U C72U A84C U87C U112C,-1.31
9,A29U C73A C98A,-4.9
10,A29U C73U C98U A111C,-3.36
11,A29U C76G C86A,-2.31
12,A29U C76U U78A,-2.22
13,A29U C82A,-2.3
14,A29U C99G A119G G120C,-6.66
15,A29U C101A G110A A118G A121G,-4.96
16,A29U C114G,-4.29
17,A29U G44U G60A G113U A118G U131G,-5.8
18,A29U G47A C86G,-2
19,A29U G47U,-3.05
20,A29U G48A A111C,-2.11
21,A29U G48C C82G A118U,-2.03

row,Variant,polymerase ribozyme fitness (log ratio)
1,A29U G48C G113C U129A,-4.71
2,A29U G48U C70G C123U,-5.55
3,A29U G48U C73G U112A,-0.987
4,A29U G52U U106C G117A A118U C124G,-1.91
5,A29U G61C G110U,-3.06
6,A29U G61U U106G,-1.91
7,A29U G69C C98U G113C,-4.71
8,A29U G69U,-0.63
9,A29U G69U G120U,-0.561
10,A29U G77C U112G G127C,-5.41
11,A29U G120U,-0.652
12,A29U U32C G61C C70G C98A C114U,-5.96
13,A29U U38G C88U,-3.31
14,A29U U81C C124A,-0.606
15,A29U U92G U109A C115U U130A,-5.3
16,U30A A41C G113A C124A,-5.47
17,U30A C104A,-6.42
18,U30A G39U C101A A111U A119G C123G,-6.64
19,U30A G48C G63U C124A,-5.12
20,U30A G61A C88U,-5.29
21,U30A U129G,-4.77

row,Variant,polymerase ribozyme fitness (log ratio)
1,U30C A37C,-3.86
2,U30C A46G A74G G113A,-2.75
3,U30C A50G A74G C123U,-3.32
4,U30C C49A C62A C115A,-4.4
5,U30C G39A G57U G69U U130G,-5.29
6,U30C G42U,-3.85
7,U30C G42U C76G C85A G122A C123G,-4.17
8,U30C G71U,-3.2
9,U30C G71U U87C,-4.19
10,U30C U78A U96A,-5.15
11,U30C U78A U106C A121U,-2.15
12,U30C U78G,-3.78
13,U30C U87G,-2.72
14,U30G A43C C104A A111U,-6.22
15,U30G A43U G45U G47A C49A C73A U106A A119G,-3.78
16,U30G C34G C56A U109A A111C G117U U131C U132C,-6.83
17,U30G C49G C80G G117C,-7.34
18,U30G C64U A121G,-4
19,U30G C115A,-5.72
20,C31A A111C,-3.67
21,C31A C72G,-5.43

row,Variant,polymerase ribozyme fitness (log ratio)
1,C31A C73U,-5.76
2,C31A C88G,-4.98
3,C31A G36C G60C C72G C98A C99A C124U G128U,-7.42
4,C31A G44U C101U C124G,-5.62
5,C31A G63U C88G A121U,-6.64
6,C31A G107C,-4.91
7,C31A U32C C123G,-3.17
8,C31A U54C U96A A111G,-5.95
9,C31A U81C C124A,-5.14
10,C31G A37U C97A U116G,-7.62
11,C31G A41U U55G G61U C86U G93C C102U G113C,-6.73
12,C31G A50C U109G U131A,-4.54
13,C31G A50C U112A,-6.45
14,C31G A111U C114U,-6.64
15,C31G C34G C97A C102A G113A,-6.66
16,C31G C62U A84G U87A G93U G120U,-6.9
17,C31G C88A G110U C115A,-7.42
18,C31G C88G G110A U126G,-6.03
19,C31G C99G,-6.63
20,C31G C124G,-6.98
21,C31G G35C A43G G110C,-7.68
